Measurements as given in PMC4335062, “Data-Driven Prediction and Design of bZIP Coiled-Coil Interactions” (PLoS Computational Biology, 2015).
Each block holds one binder with its values, some of them ahead of it. Where no end group is shown, it is not given here.

What was measured:
[1] = biological target: ATF2 (human) (UniProt P15336); assay: FRET or BRET; direct-binding FRET in 384-well plates; rhodamine-labelled design (acceptor) titrated 0 to 1 uM into 10 nM fluorescein-labelled bZIP (donor); 150 mM KCl, 50 mM potassium phosphate pH 7.4, 0.1% Tween-20, 0.1% BSA; 37 °C
[2] = biological target: T1, MAFG (Homo sapiens, UniProt O15525); assay: as above
T1 sequence (O15525 whole entry): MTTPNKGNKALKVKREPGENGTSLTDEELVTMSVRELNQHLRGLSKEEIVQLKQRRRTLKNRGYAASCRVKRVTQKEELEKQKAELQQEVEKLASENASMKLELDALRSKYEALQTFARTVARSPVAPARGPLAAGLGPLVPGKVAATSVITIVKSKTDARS

[3] = biological target: X-box binding protein 1 (human) (UniProt P17861); assay: as above
Chain of X-box binding protein 1 (human) (P17861 whole entry): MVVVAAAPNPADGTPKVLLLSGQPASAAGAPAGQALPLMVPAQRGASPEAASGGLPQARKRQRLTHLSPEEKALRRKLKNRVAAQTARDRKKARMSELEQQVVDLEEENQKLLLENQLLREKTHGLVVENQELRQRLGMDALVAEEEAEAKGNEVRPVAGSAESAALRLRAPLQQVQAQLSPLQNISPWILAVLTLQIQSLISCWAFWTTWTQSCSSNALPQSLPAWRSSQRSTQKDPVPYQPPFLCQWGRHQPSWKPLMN

[4] = biological target: T2, ATF6B (Homo sapiens, UniProt Q99941); assay: as above
T2 sequence (Q99941 whole entry): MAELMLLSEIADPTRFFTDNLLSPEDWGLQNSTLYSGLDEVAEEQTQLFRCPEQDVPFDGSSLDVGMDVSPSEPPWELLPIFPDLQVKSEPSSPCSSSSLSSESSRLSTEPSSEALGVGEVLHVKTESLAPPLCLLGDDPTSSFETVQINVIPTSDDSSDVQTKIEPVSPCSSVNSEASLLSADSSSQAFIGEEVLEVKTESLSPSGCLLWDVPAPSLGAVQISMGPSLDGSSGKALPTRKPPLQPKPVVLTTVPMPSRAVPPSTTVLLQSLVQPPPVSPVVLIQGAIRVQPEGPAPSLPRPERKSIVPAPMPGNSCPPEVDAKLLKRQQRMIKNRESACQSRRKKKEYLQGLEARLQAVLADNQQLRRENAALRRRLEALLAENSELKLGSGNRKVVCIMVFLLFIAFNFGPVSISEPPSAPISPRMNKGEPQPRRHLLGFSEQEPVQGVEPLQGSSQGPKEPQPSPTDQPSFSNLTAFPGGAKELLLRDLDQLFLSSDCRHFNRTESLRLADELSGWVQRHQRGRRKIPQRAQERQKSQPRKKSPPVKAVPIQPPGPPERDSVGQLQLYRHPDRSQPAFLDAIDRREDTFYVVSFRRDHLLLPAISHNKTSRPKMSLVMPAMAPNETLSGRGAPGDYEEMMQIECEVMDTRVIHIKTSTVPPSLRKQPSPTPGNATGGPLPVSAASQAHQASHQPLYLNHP

[5] = biological target: Activating Transcription Factor (ATF) 3 (human) (UniProt P18847); assay: as above
Chain of Activating Transcription Factor (ATF) 3 (human) (P18847 whole entry): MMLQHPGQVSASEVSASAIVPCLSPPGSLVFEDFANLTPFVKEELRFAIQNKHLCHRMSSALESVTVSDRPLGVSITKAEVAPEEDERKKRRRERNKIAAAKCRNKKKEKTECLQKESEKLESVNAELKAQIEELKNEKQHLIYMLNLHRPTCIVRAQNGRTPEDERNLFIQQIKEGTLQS

[6] = biological target: NFE2L3 (human) (UniProt Q9Y4A8); assay: as above
Chain of NFE2L3 (human) (Q9Y4A8 whole entry): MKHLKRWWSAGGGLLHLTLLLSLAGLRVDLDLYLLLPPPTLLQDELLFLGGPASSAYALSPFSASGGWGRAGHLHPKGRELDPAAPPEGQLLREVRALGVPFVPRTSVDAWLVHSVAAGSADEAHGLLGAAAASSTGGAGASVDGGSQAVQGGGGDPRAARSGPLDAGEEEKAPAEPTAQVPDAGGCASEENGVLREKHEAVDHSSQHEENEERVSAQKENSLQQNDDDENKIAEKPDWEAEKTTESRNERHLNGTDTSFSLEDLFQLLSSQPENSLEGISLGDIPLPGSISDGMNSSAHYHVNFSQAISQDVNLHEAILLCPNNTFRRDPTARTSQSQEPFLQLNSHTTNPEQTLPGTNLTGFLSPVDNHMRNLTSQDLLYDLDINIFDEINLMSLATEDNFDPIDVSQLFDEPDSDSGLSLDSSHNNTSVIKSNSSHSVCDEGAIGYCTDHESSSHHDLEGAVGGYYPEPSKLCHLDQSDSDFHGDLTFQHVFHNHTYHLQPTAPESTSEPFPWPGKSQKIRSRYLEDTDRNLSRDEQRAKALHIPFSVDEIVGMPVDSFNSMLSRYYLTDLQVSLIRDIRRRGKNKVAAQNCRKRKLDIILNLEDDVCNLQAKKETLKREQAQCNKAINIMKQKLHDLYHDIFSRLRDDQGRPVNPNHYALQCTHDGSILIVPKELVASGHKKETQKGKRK

[7] = biological target: MAFF (human) (UniProt Q9ULX9); assay: as above
Chain of MAFF (human) (Q9ULX9 whole entry): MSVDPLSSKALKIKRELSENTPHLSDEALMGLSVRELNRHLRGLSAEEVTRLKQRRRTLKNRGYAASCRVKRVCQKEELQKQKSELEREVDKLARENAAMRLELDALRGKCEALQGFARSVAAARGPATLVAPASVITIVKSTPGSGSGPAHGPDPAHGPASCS

[8] = biological target: CREB1 (human) (UniProt P16220); assay: as above
Chain of CREB1 (human) (P16220 whole entry): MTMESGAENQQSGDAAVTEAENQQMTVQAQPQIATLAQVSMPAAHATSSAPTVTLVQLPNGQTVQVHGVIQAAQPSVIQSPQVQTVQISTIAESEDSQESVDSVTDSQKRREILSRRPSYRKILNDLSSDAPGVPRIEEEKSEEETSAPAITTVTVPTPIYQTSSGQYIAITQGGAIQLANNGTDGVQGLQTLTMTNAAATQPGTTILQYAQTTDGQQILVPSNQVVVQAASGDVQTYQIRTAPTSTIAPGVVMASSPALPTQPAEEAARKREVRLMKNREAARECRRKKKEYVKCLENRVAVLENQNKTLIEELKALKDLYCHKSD

[9] = biological target: T1, MAFG; assay: FRET or BRET; direct-binding FRET in 384-well plates; rhodamine-labelled design (acceptor) titrated 0 to 1 uM into 10 nM fluorescein-labelled bZIP (donor); 150 mM KCl, 50 mM potassium phosphate pH 7.4, 0.1% Tween-20, 0.1% BSA; 23 °C
[10] = biological target: T2, ATF6B; assay: as above
[11] = biological target: MAF (Homo sapiens, UniProt O75444); assay: as above
[12] = biological target: FOS (Homo sapiens, UniProt P01100); assay: FRET or BRET; direct-binding FRET in 384-well plates; rhodamine-labelled design (acceptor) titrated 0 to 1 uM into 10 nM fluorescein-labelled bZIP (donor); 150 mM KCl, 50 mM potassium phosphate pH 7.4, 0.1% Tween-20, 0.1% BSA; 37 °C
Chain of FOS (P01100 whole entry): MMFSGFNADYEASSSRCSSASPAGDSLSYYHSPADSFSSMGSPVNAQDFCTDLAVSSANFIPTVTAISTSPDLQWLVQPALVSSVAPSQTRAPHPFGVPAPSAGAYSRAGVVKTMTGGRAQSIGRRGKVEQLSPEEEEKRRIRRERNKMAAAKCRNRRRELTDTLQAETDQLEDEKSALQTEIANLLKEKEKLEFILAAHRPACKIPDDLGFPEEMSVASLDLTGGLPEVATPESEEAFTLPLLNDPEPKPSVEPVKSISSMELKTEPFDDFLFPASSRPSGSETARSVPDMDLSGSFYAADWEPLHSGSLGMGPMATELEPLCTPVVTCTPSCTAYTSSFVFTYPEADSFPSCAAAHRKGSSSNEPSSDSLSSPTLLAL

[13] = biological target: HLF (human) (UniProt Q16534); assay: as above
Chain of HLF (human) (Q16534 whole entry): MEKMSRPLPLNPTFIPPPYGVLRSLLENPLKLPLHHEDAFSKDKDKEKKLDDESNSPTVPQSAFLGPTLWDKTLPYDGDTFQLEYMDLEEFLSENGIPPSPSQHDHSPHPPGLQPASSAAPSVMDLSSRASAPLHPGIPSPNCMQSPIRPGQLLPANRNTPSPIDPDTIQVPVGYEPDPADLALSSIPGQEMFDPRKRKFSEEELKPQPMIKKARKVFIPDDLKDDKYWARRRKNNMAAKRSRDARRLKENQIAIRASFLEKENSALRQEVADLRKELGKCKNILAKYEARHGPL

[14] = biological target: NFE2L1 (Homo sapiens, UniProt Q14494); assay: as above
Chain of NFE2L1 (Q14494 whole entry): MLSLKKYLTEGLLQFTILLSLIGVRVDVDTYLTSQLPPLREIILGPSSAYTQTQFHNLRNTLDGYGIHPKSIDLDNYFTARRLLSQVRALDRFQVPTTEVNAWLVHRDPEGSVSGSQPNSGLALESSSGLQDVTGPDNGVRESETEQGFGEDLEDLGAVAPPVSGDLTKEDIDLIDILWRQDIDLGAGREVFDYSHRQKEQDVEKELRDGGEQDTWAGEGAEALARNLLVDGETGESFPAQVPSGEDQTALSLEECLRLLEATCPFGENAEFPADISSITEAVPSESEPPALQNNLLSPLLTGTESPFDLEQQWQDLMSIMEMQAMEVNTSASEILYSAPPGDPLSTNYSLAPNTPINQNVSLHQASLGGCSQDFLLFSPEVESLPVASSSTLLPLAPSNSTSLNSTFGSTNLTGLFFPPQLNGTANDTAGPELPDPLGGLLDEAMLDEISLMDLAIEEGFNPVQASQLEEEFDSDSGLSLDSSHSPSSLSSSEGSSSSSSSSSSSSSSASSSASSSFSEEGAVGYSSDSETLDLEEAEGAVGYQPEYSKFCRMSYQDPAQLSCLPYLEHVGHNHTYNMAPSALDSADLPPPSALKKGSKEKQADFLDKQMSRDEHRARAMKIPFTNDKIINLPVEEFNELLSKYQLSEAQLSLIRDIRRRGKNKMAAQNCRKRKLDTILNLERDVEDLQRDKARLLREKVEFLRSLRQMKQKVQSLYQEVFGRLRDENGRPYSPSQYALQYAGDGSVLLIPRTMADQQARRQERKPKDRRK

[15] = biological target: BATF3 (human) (UniProt Q9NR55); assay: as above
Chain of BATF3 (human) (Q9NR55 whole entry): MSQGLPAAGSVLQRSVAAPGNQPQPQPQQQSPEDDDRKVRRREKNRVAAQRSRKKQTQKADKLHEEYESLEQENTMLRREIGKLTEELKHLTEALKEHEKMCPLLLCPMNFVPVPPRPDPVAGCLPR

[16] = biological target: JUN (Homo sapiens, UniProt P05412); assay: FRET or BRET; direct-binding FRET in 384-well plates; rhodamine-labelled design (acceptor) titrated 0 to 1 uM into 10 nM fluorescein-labelled bZIP (donor); 150 mM KCl, 50 mM potassium phosphate pH 7.4, 0.1% Tween-20, 0.1% BSA; 23 °C
Chain of JUN (P05412 whole entry): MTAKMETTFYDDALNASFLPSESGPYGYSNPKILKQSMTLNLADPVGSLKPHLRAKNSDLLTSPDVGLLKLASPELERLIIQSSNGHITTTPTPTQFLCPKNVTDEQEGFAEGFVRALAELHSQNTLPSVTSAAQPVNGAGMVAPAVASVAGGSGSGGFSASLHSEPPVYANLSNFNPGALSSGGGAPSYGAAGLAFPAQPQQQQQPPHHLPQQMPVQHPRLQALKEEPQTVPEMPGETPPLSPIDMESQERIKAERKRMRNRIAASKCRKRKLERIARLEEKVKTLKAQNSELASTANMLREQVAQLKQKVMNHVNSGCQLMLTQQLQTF

[17] = biological target: CREBZF (human) (UniProt Q9NS37); assay: as above
Chain of CREBZF (human) (Q9NS37 whole entry): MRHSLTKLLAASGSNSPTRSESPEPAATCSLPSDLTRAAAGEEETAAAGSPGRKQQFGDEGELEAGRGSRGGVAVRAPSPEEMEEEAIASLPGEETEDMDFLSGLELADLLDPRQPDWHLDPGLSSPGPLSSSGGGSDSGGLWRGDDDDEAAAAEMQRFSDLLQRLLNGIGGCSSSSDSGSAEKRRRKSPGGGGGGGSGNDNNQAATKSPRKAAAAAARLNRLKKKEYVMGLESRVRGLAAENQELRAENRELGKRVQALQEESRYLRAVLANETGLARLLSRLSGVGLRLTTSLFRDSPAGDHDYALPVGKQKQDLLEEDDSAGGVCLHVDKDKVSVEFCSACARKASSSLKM

Kd [1]: > 5 µM | Kd [2]: > 5 µM | Kd [3]: > 5 µM | Kd [4]: > 5 µM | Kd [5]: > 5 µM | Kd [6]: > 5 µM | Kd [7]: 0.327 µM | Kd [8]: > 5 µM | Kd [9]: 1 µM | Kd [10]: 1 µM | Kd [11]: > 5 µM
B1: ATF4-d1 labeled at the C-terminus (designed binder)
chain: GESKEYKKGSGSNQIKTLRTRLSKLRKDNLQLEKDIANLERKAKDLRAEKEQLEYELGC
modifications: also: C59 label by assay: Rhodamine Red C2-maleimide or fluorescein-5-maleimide
notes: solubility linker after the His6 tag; added to the C-terminus for labeling; one molecule for the rhodamine- and the fluorescein-labelled form; the assay tells which label stood there; also called ATF4-d1-Rhodamine; ATF4-d1-FITC; source: E. coli RP3098, purified (Ni-NTA under denaturing conditions, reverse-phase HPLC)

Kd [12]: > 5 µM | Kd [13]: > 5 µM | Kd [14]: > 5 µM | Kd [15]: > 5 µM | Kd [16]: > 5 µM | Kd [17]: > 5 µM
B2: ATF5-d1 labeled at the C-terminus (designed binder)
chain: GESKEYKKGSGSKRIAYLRQRIAELRNENHVLESRIQRMEKEKDALQQDRDHLEYELGC(Rhodamine Red C2‑maleimide)
modifications: not fully specified
